# Data published in patent US20250136721A1 (GlaxoSmithKline, published 2025).
# T1: Recombinant human TNFR1-Fc (human, UniProt P19438 30-211, limits assumed)
# T1 construct: bought reagent; also called hTNFR1:Fc; not shown: Fc part; not described
# T1 sequence (looked up): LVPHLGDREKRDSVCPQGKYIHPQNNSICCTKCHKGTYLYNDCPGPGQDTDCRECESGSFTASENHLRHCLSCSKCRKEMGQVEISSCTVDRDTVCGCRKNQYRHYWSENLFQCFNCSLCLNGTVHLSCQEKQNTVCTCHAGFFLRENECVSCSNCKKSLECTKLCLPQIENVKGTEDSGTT
# Legend:
# [1] = target: pre-existing anti-VH ADA in human serum; assay: ADA confirmation assay (MSD): 10 ug/mL test material against labelled DOM1H-131-206, mean of 10 sera
# [2] = target: T1, Recombinant human TNFR1-Fc; assay: ELISA: dAb on coated recombinant human TNFR1-Fc, anti-Vh detection
# [3] = target: pre-existing anti-VH ADA in human serum; assay: ADA confirmation assay (MSD): 10 ug/mL test material against labelled DOM1H-131-206; share of 10 ADA-positive sera with binding
# [4] = target: pre-existing anti-VH ADA in human serum; assay: ADA confirmation assay (MSD) described previously, mean of 10 donor sera
Mean % inhibition of signal in confirmation assay [1] [%],EC50 [2] [pM],% subjects with ADA binding (10 subjects) (% of subjects) [3],% inhibition in confirmation assay [4] [%],Binder
99.1,3500,100,,"DOM1H-131-206 G44E, H91S (other, name in Kabat numbering, VH dAb variant) VH: EVQLLESGGGLVQPGGSLRLSCAASGFTFAHETMVWVRQAPGKELEWVSHIPPDGQDPFYADSVKGRFTISRDNSKNTLYLQMNSLRAEDTAVYSCALLPKRGPWFDYWGQGTLVTVSS"
91.3,1640,100,,"DOM1H-131-206 G44E, L108Q (other, name in Kabat numbering, VH dAb variant) VH: EVQLLESGGGLVQPGGSLRLSCAASGFTFAHETMVWVRQAPGKELEWVSHIPPDGQDPFYADSVKGRFTISRDNSKNTLYLQMNSLRAEDTAVYHCALLPKRGPWFDYWGQGTQVTVSS"
61.6,2030,100,,"DOM1H-131-206 P14A, G44E (other, name in Kabat numbering, VH dAb variant) VH: EVQLLESGGGLVQAGGSLRLSCAASGFTFAHETMVWVRQAPGKELEWVSHIPPDGQDPFYADSVKGRFTISRDNSKNTLYLQMNSLRAEDTAVYHCALLPKRGPWFDYWGQGTLVTVSS"
,,,29,DOM10H-53-567 C-terminal AST (protein) VH: GVQLLESGGGLVQPGGSLRLSCAASGFVFAWYDMGWVRQAPGKGLEWVSSIDWHGEVTYYADSVKGRFTISRDNSKNTLYLQMNSLRAEDTAVYYCATAEDEPGYDYWGQGTLVTVSSAST
,,,27.7,DOM10H-53-567 C-terminal ASTK (protein) VH: GVQLLESGGGLVQPGGSLRLSCAASGFVFAWYDMGWVRQAPGKGLEWVSSIDWHGEVTYYADSVKGRFTISRDNSKNTLYLQMNSLRAEDTAVYYCATAEDEPGYDYWGQGTLVTVSSASTK

# Continued, binder first:
Binder,Mean % inhibition of signal in confirmation assay [1] [%],EC50 [2] [pM],% subjects with ADA binding (10 subjects) (% of subjects) [3],% inhibition in confirmation assay [4] [%]
"DOM1H-131-206 G44E (other, name in Kabat numbering, VH dAb variant) VH: EVQLLESGGGLVQPGGSLRLSCAASGFTFAHETMVWVRQAPGKELEWVSHIPPDGQDPFYADSVKGRFTISRDNSKNTLYLQMNSLRAEDTAVYHCALLPKRGPWFDYWGQGTLVTVSS",99.5,860,100,
"DOM1H-131-206 P14A, H91S (other, name in Kabat numbering, VH dAb variant) VH: EVQLLESGGGLVQAGGSLRLSCAASGFTFAHETMVWVRQAPGKGLEWVSHIPPDGQDPFYADSVKGRFTISRDNSKNTLYLQMNSLRAEDTAVYSCALLPKRGPWFDYWGQGTLVTVSS",50.2,750,60,
"DOM1H-131-206 K43A (other, name in Kabat numbering, VH dAb variant) VH: EVQLLESGGGLVQPGGSLRLSCAASGFTFAHETMVWVRQAPGAGLEWVSHIPPDGQDPFYADSVKGRFTISRDNSKNTLYLQMNSLRAEDTAVYHCALLPKRGPWFDYWGQGTLVTVSS",99.5,670,100,
"DOM1H-131-206 R83A (other, name in Kabat numbering, VH dAb variant) VH: EVQLLESGGGLVQPGGSLRLSCAASGFTFAHETMVWVRQAPGKGLEWVSHIPPDGQDPFYADSVKGRFTISRDNSKNTLYLQMNSLAAEDTAVYHCALLPKRGPWFDYWGQGTLVTVSS",99.3,760,100,
"DOM1H-131-206 H91S (other, name in Kabat numbering, VH dAb variant) VH: EVQLLESGGGLVQPGGSLRLSCAASGFTFAHETMVWVRQAPGKGLEWVSHIPPDGQDPFYADSVKGRFTISRDNSKNTLYLQMNSLRAEDTAVYSCALLPKRGPWFDYWGQGTLVTVSS",99.4,960,100,
"DOM1H-131-206 P41A (other, name in Kabat numbering, VH dAb variant) VH: EVQLLESGGGLVQPGGSLRLSCAASGFTFAHETMVWVRQAAGKGLEWVSHIPPDGQDPFYADSVKGRFTISRDNSKNTLYLQMNSLRAEDTAVYHCALLPKRGPWFDYWGQGTLVTVSS",87.3,590,100,
DOM10H-53-567 C-terminal ASTKG (protein) VH: GVQLLESGGGLVQPGGSLRLSCAASGFVFAWYDMGWVRQAPGKGLEWVSSIDWHGEVTYYADSVKGRFTISRDNSKNTLYLQMNSLRAEDTAVYYCATAEDEPGYDYWGQGTLVTVSSASTKG,,,,13.4
DOM10H-53-567 C-terminal AS (protein) VH: GVQLLESGGGLVQPGGSLRLSCAASGFVFAWYDMGWVRQAPGKGLEWVSSIDWHGEVTYYADSVKGRFTISRDNSKNTLYLQMNSLRAEDTAVYYCATAEDEPGYDYWGQGTLVTVSSAS,,,,14.8
DOM10H-53-567 C-terminal A (protein) VH: GVQLLESGGGLVQPGGSLRLSCAASGFVFAWYDMGWVRQAPGKGLEWVSSIDWHGEVTYYADSVKGRFTISRDNSKNTLYLQMNSLRAEDTAVYYCATAEDEPGYDYWGQGTLVTVSSA,,,,12.8
DOM10H-53-567 (protein) VH: GVQLLESGGGLVQPGGSLRLSCAASGFVFAWYDMGWVRQAPGKGLEWVSSIDWHGEVTYYADSVKGRFTISRDNSKNTLYLQMNSLRAEDTAVYYCATAEDEPGYDYWGQGTLVTVSS,,,,95.1
